Key:
[1] = molecular target: molybdenum-iron protein (MoFeP) of Gluconacetobacter diazotrophicus Mo-nitrogenase (Gluconacetobacter diazotrophicus)
[2] = molecular target: molybdenum-iron protein (MoFeP) of Gluconacetobacter diazotrophicus Mo-nitrogenase (Gluconacetobacter diazotrophicus); remark: listed apart in the source

B1: His-CowN (Gluconacetobacter diazotrophicus CowN, His-tagged, refolded, monomeric fraction) (natural protein)
chain: MTEQIDRYVSFRNVEWERRTAEVFALLQPHFDGSTSPFWDYFLRQRVIAHAQGLDDLRVLHNFLPTLKDLLEELDDERTLSRLEELEVLCM
[1]
  KD^app from a hyperbolic fit of nitrogenase C2H2 reduction activity against CowN concentration under 0.001 atm CO (MoFeP with FeP, turnover conditions): 400 nM
  KD^app from a hyperbolic fit of nitrogenase C2H2 reduction activity against CowN concentration under 0.1 atm CO (MoFeP with FeP, turnover conditions): 1080 nM
[2]
  nitrogenase C2H2 reduction activity under 0.1 atm CO with 2 μM CowN against no CowN (0.2 μM MoFeP, 2 μM FeP): 9 fold

— publication PMC8047169
